# Laboratory results as given in US20160068605A1 (Janssen / Centocor, published 2016).
# Where a chain is given by its changes, count along the chain named.
# T1: human CD123 SP1 ECD displayed on pDisplay-transfected cells (human, UniProt P26951 20-305)
# T1 construct: ECD anchored on the surface of stably transfected HEK293 cells by the PDGFR transmembrane domain; also called hCD123 SP1 cells; hCD123 cells
# T1 sequence: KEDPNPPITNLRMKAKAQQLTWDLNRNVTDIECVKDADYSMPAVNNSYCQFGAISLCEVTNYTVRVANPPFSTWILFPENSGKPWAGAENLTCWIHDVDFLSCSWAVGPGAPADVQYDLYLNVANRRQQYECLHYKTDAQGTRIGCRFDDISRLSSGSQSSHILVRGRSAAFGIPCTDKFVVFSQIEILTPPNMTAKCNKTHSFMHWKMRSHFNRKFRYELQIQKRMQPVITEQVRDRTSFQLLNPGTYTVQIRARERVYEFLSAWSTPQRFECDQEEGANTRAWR
# T2: human CD123 SP2 ECD displayed on pDisplay-transfected cells (human, UniProt P26951 101-305)
# T2 construct: ECD anchored on the surface of stably transfected HEK293 cells; also called hCD123 SP2 cells; pDisplay CD123SP2
# T2 sequence: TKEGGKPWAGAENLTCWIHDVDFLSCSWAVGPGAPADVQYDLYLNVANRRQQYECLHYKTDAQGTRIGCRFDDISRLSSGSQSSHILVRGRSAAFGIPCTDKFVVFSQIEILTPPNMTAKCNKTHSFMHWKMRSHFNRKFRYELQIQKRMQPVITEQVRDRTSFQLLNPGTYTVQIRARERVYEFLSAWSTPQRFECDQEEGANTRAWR
# T3: cyno CD123 ECD displayed on pDisplay-transfected cells (cynomolgus monkey)
# T3 construct: ECD anchored on the surface of stably transfected HEK293 cells; also called cynoCD123 SP1 cells; cynoCD123 cells
# T3 chain: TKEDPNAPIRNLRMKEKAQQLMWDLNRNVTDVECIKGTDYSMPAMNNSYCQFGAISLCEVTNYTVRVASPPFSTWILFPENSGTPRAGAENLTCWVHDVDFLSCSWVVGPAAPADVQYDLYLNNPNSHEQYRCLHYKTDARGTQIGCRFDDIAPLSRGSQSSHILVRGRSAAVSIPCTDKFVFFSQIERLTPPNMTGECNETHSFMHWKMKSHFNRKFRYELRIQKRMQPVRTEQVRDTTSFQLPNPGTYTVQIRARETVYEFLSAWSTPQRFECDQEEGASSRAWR
# T4: Recombinant human CD123 SP1 ECD-His tag protein (human, UniProt P26951 20-305)
# T4 construct: bought from R&D Systems (#301-R3/CF); biotinylated for some assays; also called rhCD123 SP1; huCD123 ECD SP1
# T4 sequence: T1 sequence
# T5: Recombinant human CD123 SP2 ECD protein (human, UniProt P26951 101-303)
# T5 construct: also called rhCD123 SP2; CD123 ECD SP2
# T5 sequence: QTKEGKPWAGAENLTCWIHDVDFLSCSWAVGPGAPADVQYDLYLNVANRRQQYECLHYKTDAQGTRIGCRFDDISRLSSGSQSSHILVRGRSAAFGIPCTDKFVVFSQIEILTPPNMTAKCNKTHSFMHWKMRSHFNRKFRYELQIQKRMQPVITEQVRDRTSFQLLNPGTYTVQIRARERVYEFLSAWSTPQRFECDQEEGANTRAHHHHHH
# B1: I3RB25 (antibody, V domains shown)
# VH: QVQLVQSGAEVKKPGSSVKVSCKASGGTFSSYGISWVRQAPGQGLEWMGGISAIFGNANYAQKFQGRVTITADESTSTAYMELSSLRSEDTAVYYCARRFKWWESYFDYWGQGTLVTVSS
# VL: not shown
# B2: I3RB217 (antibody, human IgG4 S228P, kappa, F234A L235A, V domains shown)
# VH: EVQLVQSGAEVKKPGESLKISCKGSGYSFTSYWISWVRQMPGKGLEWMGIIDPSDSDTRYSPSFQGQVTISADKSISTAYLQWSSLKASDTAMYYCARGDGSTDLDYWGQGTLVTVSS
# VL: EIVLTQSPGTLSLSPGERATLSCRASQSVSSSYLAWYQQKPGQAPRLLIYGASSRATGIPDRFSGSGSGTDFTLTISRLEPEDFAVYYCQQDYGFPWTFGQGTKVEIKR
# B3: I3RB119 (Fab, V domains shown)
# VH: B2 VH
# VL: EIVLTQSPGTLSLSPGERATLSCRASQSVSSSYLAWYQQKPGQAPRLLIYGASSRATGIPDRFSGSGSGTDFTLTISRLEPEDFAVYYCQQDYGFPWTFGQGTKVEIK
# notes: also called Fab I3RB119; I3RB18 Fab
# B4: I3RB120 (Fab, V domains shown)
# VH: EVQLLESGGGLVQPGGSLRLSCAASGFTFSGYWMHWVRQAPGKGLEWVSAIRSDGSSKYYADSVKGRFTISRDNSKNTLYLQMNSLRAEDTAVYYCAKDGVIEDTFDYWGQGTLVTVSS
# VL: EIVLTQSPATLSLSPGERATLSCRASQSVSSYLAWYQQKPGQAPRLLIYDASNRATGIPARFSGSGSGTDFTLTISSLEPEDFAVYYCQQRSNWPLTFGQGTKVEIK
# notes: also called Fab I3RB120; I3RB2 Fab
# B5: I3RB121 (Fab, V domains shown)
# VH: QVQLVQSGAEVKKPGSSVKVSCKASGGTFSSYAISWVRQAPGQGLEWMGGIIPIFGTANYAQKFQGRVTITADESTSTAYMELSSLRSEDTAVYYCARHLFWDAGPLDYWGQGTLVTVSS
# VL: DIQMTQSPSSLSASVGDRVTITCRASQSISSYLNWYQQKPGKAPKLLIYAASSLQSGVPSRFSGSGSGTDFTLTISSLQPEDFATYYCQQYFSPPYTFGQGTKVEIK
# notes: also called Fab of I3RB35
# B6: I3RB21 (antibody, IgG1, V domains shown)
# VH: B5 VH with H99E, L100G, F101W, D103G, A104Q, P106K, L107F
# VL: B4 VL with S30A, S31N, Y32F, D50A, R91Y, S92F, N93H, L96Y
# notes: IgG1
# Assays:
# [1] = biological target: T1, human CD123 SP1 ECD displayed on …; test: MSD cell binding on 293F pDisplay cells; fold change over background; parental 293F cells as control
# [2] = biological target: T2, human CD123 SP2 ECD displayed on …; test: as above
# [3] = biological target: T3, cyno CD123 ECD displayed on …; test: as above
# [4] = biological target: IL3RA-PK (CD123 tagged with ProLink) in HEK293 IL3RA-PK/CSF2RB-EA cells (UniProt P26951 19-378); test: cell-based or functional assay
# [5] = biological target: T3, cyno CD123 ECD displayed on …; test: MSD-CAT on pDisplay cells
# Method: (§1) After equilibration the plate was centrifuged for 5 min ˜1000 rpm and free anti-CD3 detected on the supernatant. […] The assay buffer was removed without washing and 50 μL/well of 0.7 μg/mL of biotinylated antigen in assay buffer were added to MSD plates and incubated overnight (˜16 hr at 4° C.). After overnight incubation, the plates were blocked by adding 150 μL/well of assay buffer without removing coating antigen, incubated for ˜1 hr at ambient temperature and washed 5 times with wash buffer (assay buffer without BSA). 50 μL/well of the supernantants from samples plate were transferred to antigen-coated plates, incubated for 60 min, and then washed three times with wash Buffer. After this 50 μL per well of ruthenium labeled detection antibody(anti-human H+L) were added and incubated for 1 hr. After 1 hr the plates were washed and 150 μL of MSD Read Buffer (prepared by diluting 1:4 of stock into d. H₂O) were added per well. The plates were read immediately on the MSD Sector Imager 6000 Reader for luminescence levels. ECL signal detected by MSD was expressed in term of % free antibody in the mixture and the data was analyzed to determine affinity using a user defined equation (derived from the law of mass action) introduced in Prism software.
# [6] = biological target: T1, human CD123 SP1 ECD displayed on …; test: MSD-CAT, hCD123 cells, assay-2
# Method: as §1
# [7] = biological target: T3, cyno CD123 ECD displayed on …; test: MSD-CAT, cynoCD123 cells, assay-2
# Method: (§2) The MSD-CAT was developed in-house as a label-free method to determine affinity using intact cells in a high throughput format. […] Cell lines used were human pDisplay CD and cyno pDisplay CD123SP1. […] These samples were prepared in DMEM Glutamax medium containing 0.05% Azide, 1% BSA, 3 mM EDTA. The receptor numbers of (3.15-4.18)×10⁶ hCD123/cell and (4.78-9.24) 10⁶ cyCD123/cell were converted to M receptor concentration in the mixture on the basis of the volume of reaction, the cell density (cells/L) and the Avogadro's number. […] After equilibration the plate was centrifuged for 5 min ˜1000 rpm and free anti-CD3 detected on the supernatant.
# [8] = biological target: T3, cyno CD123 ECD displayed on …; test: MSD-CAT, cynoCD123 cells, assay-1
# Method: as §2
# [9] = biological target: T1, human CD123 SP1 ECD displayed on …; test: MSD-CAT, hCD123 cells, assay-1
# Method: as §1
# [10] = biological target: T4, Recombinant human CD123 SP1 ECD-His tag …; test: SPR Biacore 3000, captured Fab
# Method: (§3) Kinetic studies were performed at 25° C. using a Biacore 3000 (BIAcore, Inc., now part of GE Healthcare). […] Sheep anti-Human Fd specific antibody (The binding site Prod # PC075) was covalently attached to two flow cells (normally 3 and 4) of the carboxymethyl dextran coated gold surfaces (CM-5 Chip, Biacore). The carboxymethyl groups of dextran were activated with N-Ethyl-N′-(3-Dimethylaminopropyl)carbodiimide (EDC) and N-hydroxysuccinimide (NHS). The antibodies were coupled at pH 4.5 in 10 mM sodium acetate. Any remaining reactive sites on the surface were blocked by reaction with ethanolamine. […] Association data was collected for 2 min followed by 10 min of dissociation. The surface was regenerated with 30 μL of 100 mM H3PO4 100 μL/min. All samples were prepared in D-PBS containing 3 mM EDTA and 0.005% surfactant P20. Data reported is the difference in SPR signal between the flow cell containing the captured antibody or Fab and a reference cell without captured antibody or Fab. Additional instrumental contributions to the signal were removed by subtraction of the data from the blank injection from the reference-subtracted signal. Data were performed in triplicate and analyzed by fitting association and dissociation phases at all concentrations (global fit) with a 1:1 binding model using the BIAevaluation software (BIAcore, Inc.). […] Data presented is an average.
# [11] = biological target: T5, Recombinant human CD123 SP2 ECD protein; test: SPR Biacore 3000, captured Fab
# Method: as §3
# [12] = biological target: T1, human CD123 SP1 ECD displayed on …; test: MSD-CAT, hCD123 cells, assay-2, fit with parameter Bo constrained
# Method: as §1
# [13] = biological target: T1, human CD123 SP1 ECD displayed on …; test: MSD-CAT, hCD123 cells, assay-1, fit with parameter Bo constrained
# Method: as §1
# [14] = biological target: T5, Recombinant human CD123 SP2 ECD protein; test: SPR Biacore 3000, captured Fab; footnote: assay response is lower than expected
# Method: as §3
# [15] = biological target: T3, cyno CD123 ECD displayed on …; test: MSD cell binding assay, signal 3x over background
# Method: The object of the screening assay was to identify antibodies that bound to cells expressing hCD123 SP1 and SP2 as well as cross reactivity with cells expressing cynoCD123 SP1.
# Cells were immobilized and phages were assayed in triplicate. […] 5000 cells per well were plated into a 384 well plate (MA6000, cat. L21XB, MSD) and allowed to adhere for 2 hr. Cells were then blocked with 20% FBS in PBS (Gibco) for 15 mins. Antibody supernatants were then added and left at RT for 1 hr. Cells were washed 3 times with PBS and a ruthenium labeled secondary antibody (Jackson Immuno Research) was then added at 1 μg/mL and incubated for 1 hr at room temperature. A further washing step was then applied and 35 μL per well of MSD Read buffer T (surfactant free) was then added and incubated for 30 min for detection. Plates were then read using Sector Imager 2400 (MSD). Data was normalized to controls and graphed using GraphPad Prism Version 5. A positive binder was determined to be a hit with a signal 3× greater than background (FIGS. 2A, B and C).
# [16] = biological target: T4, Recombinant human CD123 SP1 ECD-His tag …; test: SPR ProteOn, captured mAb
binder,measurement,setting,value
B1,binding result,[1],no binding (tested: 10 µg/mL)
same,binding result,[2],no binding (tested: 10 µg/mL)
same,binding result,[3],no binding (tested: 10 µg/mL)
B2,IC50 (read off the curve): IL-3-induced CD123/CD131 heteromerization (RLU),[4],~0.1 µg/mL
B3,fold weaker than to human CD123 SP1,[5],> 10 fold
same,Kd,[6],0.367 nM
same,Kd,[7],> 11.9 nM
same,Kd,[8],> 15 nM
same,Kd,[9],0.293 nM
same,Kd,[10],1.8 nM
same,koff,[10],0.000891 s⁻¹
same,kon,[10],493000 M⁻¹ s⁻¹
same,Kd,[11],0.4 nM
B4,fold difference of affinity against human CD123 SP1,[5],< 5 fold
same,Kd,[6],~3.84 nM
same,Kd,[12],3.81 nM
same,Kd,[13],344 nM
same,Kd,[7],> 11.9 nM
same,Kd,[8],2.4 nM
same,Kd,[9],~0.00337 nM
same,Kd,[10],8.5 nM
same,koff,[10],0.00304 s⁻¹
same,kon,[10],357000 M⁻¹ s⁻¹
same,Kd,[11],1.4 nM
B5,Kd,[14],1.2 nM
same,Kd,[10],6.3 nM
same,koff,[10],0.00245 s⁻¹
same,kon,[10],387000 M⁻¹ s⁻¹
B6,binding result,[15],binds
same,Kd,[16],2.19 nM
same,koff,[16],0.00114 s⁻¹
same,kon,[16],521000 M⁻¹ s⁻¹
